Assay [1] has as its target T1, human LAIR-2 (form in the assay not stated) (human, UniProt Q6ISS4 22-152).
T1 sequence: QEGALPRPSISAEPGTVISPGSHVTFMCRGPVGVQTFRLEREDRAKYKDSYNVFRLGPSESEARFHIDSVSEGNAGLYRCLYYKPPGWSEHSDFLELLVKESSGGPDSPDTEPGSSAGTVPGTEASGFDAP
As to the kind of experiment: ELISA and FACS screening.

The target of assay [2] is T2, mouse LAIR-1 (form in the assay not stated) (mouse, UniProt Q8BG84 22-144, limits assumed).
T2 sequence: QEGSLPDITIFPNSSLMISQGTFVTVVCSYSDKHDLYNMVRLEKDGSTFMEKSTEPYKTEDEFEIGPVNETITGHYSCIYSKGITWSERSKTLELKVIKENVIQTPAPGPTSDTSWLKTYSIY
The assay is described as follows: not described.

The next assay has as its target T3, cyno LAIR-1-ECD (cynomolgus monkey).
T3 construct: Recombinant, expressed in mammalian cells; also called extracellular region of cyno LAIR-1
T3 chain: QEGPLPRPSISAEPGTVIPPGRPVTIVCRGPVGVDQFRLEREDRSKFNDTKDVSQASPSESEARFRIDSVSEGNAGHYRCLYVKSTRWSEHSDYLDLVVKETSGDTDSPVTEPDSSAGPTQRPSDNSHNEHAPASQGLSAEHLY
As to the kind of experiment: SPR (Biacore); antibody captured by anti-Fc; LAIR-1-ECD injected. (Surface plasmon resonance follows binding to a sensor surface in real time, without labels.)

Another assay concerns the target T4, human LAIR-1-ECD (human, UniProt Q6GTX8 22-165).
T4 construct: Recombinant, expressed in mammalian cells; also called extracellular region of human LAIR-1
T4 chain: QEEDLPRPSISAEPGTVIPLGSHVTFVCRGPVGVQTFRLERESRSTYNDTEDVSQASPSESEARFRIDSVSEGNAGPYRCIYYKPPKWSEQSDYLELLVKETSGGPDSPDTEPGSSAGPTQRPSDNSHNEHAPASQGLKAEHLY
The description is as above.

Assay [3] has as its target T5, human LAIR-1-CD3ζ chimeric receptor on NFAT-GFP reporter cells (human, UniProt P20963 31-164, limits assumed). As to the kind of experiment: cell-based or functional assay.
For assay [4], the target named is T5, human LAIR-1-CD3ζ chimeric receptor on …. As to the kind of experiment: cell-based or functional assay. The source holds these as a separate data set.

Read-outs that look alike come from different tables or passages of the source.

What is called Kd is the equilibrium constant for the complex coming apart. A high value points to a looser complex. Broadly, the koff is the rate constant with which the complex falls apart. Read a high koff as fast dissociation. The kon is the rate constant with which the complex forms. High values mean fast association, low ones slow association.
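For Kd in this document: Anti-Fc immobilized on a CM5 chip, LAIR-1-ECD (human or cynomolgus) injected at 3.3-10 nM and 25 °C, kinetics fitted by simultaneous global fit.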
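For koff in this document: Anti-Fc immobilized on a CM5 chip, LAIR-1-ECD (human or cynomolgus) injected at 3.3-10 nM and 25 °C, kinetics fitted by simultaneous global fit.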
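For kon in this document: Anti-Fc immobilized on a CM5 chip, LAIR-1-ECD (human or cynomolgus) injected at 3.3-10 nM and 25 °C, kinetics fitted by simultaneous global fit.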

B1: anti-LAIR-1 antibody 62G10 (antibody, V domains shown)
VH: EVQLVETGGGLVQPKGSLKLSCATSGFTFNINAMNWVRQAPGKGLEWVARIRTKNNNFATYYADSVKDRFTISRDDSQSMLYLQMNNLKTEDTAMYYCVRGPYFDYWGQGTTLTVSS
VL: DIQMTQSPASQSASLGESVTITCLASQTIGTWLAWYQQKPGKSPQLLIYAATSLADGVPSRFSGSGSGTKFSFKISNLQAEDFVTYYCQQLYSTPYTFGGGTKLEIK
notes: Monoclonal antibody from immunized mice (hybridoma)
Consider B1, for which, in assay [1], the binding result is given as “no binding”. For the same molecule, in assay [2], the binding result is given as “no binding”. Further, in the assay with cyno LAIR-1-ECD, the Kd is 5.1 nM, the koff amounted to 0.001 s⁻¹ and the kon is 200000 M⁻¹ s⁻¹. Further, in the assay with human LAIR-1-ECD, the affinity, expressed as Kd, was 0.32 nM; the koff came to 0.00018 s⁻¹; the kon was 550000 M⁻¹ s⁻¹.

B2: anti-LAIR-1 antibody 47H1 (antibody, V domains shown)
VH: EVQLVETGGGLVQPKGSLKLSCAASGFTFNINAMNWVRQAPGKGLEWVARIRTKNNNYATFYADSVKDRFTISRDDSQSMLYLQMNNLKTDDTAMYYCVRDRAGFFAYWGQGTPVTVSA
VL: DIQMTQSPASQSASLGESVTITCLASQTIGTWLGWYRQKPGKSPQLLIYAATSLADGVPSRFSGSGSGTKFSFKISSLQAEDFVIYYCQQLYSTPLTFGSGTKLEIK
notes: as for B1
For the molecule B2, the binding result in assay [1] was “no binding”. For the same molecule, in assay [2], the binding result is on record as “no binding”. In the assay with cyno LAIR-1-ECD, this molecule showed a Kd of 2.5 nM, a koff of 0.00044 s⁻¹ and a kon of 180000 M⁻¹ s⁻¹. Besides, in the assay with human LAIR-1-ECD, the Kd worked out at 0.087 nM, the koff turned out to be 0.0001 s⁻¹ and the kon stood at 1.2e+06 M⁻¹ s⁻¹.

B3: anti-LAIR-1 antibody ch61H4 (antibody, V domains shown)
VH: EVQLQQSGPEVLKPGASVKISCKASGYTFTDYYYMNWVKQSHGKSLEWIGYIYPNNGATSYNQKFKGKATLTVDKSSSTAYMELRSLTSEDSAVYYCARDGYSSNYYTMDYWGQGTSVTVSS
VL: DVQMIQSPSSLSASLGDIVTMTCQASQGTSINLNWFQQKPGKAPKLLIYGASNLEDGVPSRFSGSRYGTDFTLTISSLEDEDMATYFCLQHTYLPYTFGGGTKLEIK
Take B3: in assay [3], the “IC50 (read off the curve): % GFP+ human LAIR-1 reporter cells on coated MARCO-his” value was around 0.8 nM, the “IC50 (read off the curve): % GFP+ human LAIR-1 reporter cells on coated collagen 1” value was around 2 nM and the “IC50 (read off the curve): % GFP+ human LAIR-1 reporter cells on coated collagen 4” value was around 1 nM.

B4: anti-LAIR-1 antibody 61H4 (antibody, V domains shown)
VH: EVQLQQSGPEVLKPGASVKISCKASGYTFTDYYYMNWVKQSHGKSLEWIGYIYPNNGATSYNQKFKGKATLTVDKSSSTAYMELRSLTSEDSAVYYCARDGYSSNYYTMDYWGQGTSVTVSS
VL: DVQMIQSPSSLSASLGDIVTMTCQASQGTSINLNWFQQKPGKAPKLLIYGASNLEDGVPSRFSGSRYGTDFTLTISSLEDEDMATYFCLQHTYLPYTFGGGTKLEIK
notes: as for B1
For the molecule B4, the binding result in assay [1] is listed as “no binding”. In assay [2], the binding result is “no binding”. In the assay with cyno LAIR-1-ECD, this molecule showed a Kd of 9.6 nM, a koff of 0.00077 s⁻¹ and a kon of 80000 M⁻¹ s⁻¹. For the same molecule, in the assay with human LAIR-1-ECD, binding was characterised by a dissociation constant (Kd) of 0.46 nM, the dissociation rate constant (koff) is 4.9e-05 s⁻¹ and the kon was found to be 110000 M⁻¹ s⁻¹.

B5: anti-LAIR-1 antibody 57D12 (antibody, V domains shown)
VH: QVQLQQSGAELARPGASVNLSCRASGYSFTSFGISWVKQRTGQGLEWIGEIYPRSDNTFYNEKFKGKATLTADKSSSTAYMELRSLTSEDSAVYFCARHFGSSSFDYWGQGTTLTVSS
VL: ENVLTQSPPIMAASLGQKVTMTCSASSSVSSIYFHWYQQKSGTSPKPLIHRASNLASGVPARFSGSGSGTSYSLTISSVEAEDDATYYCQQWSGYPLTFGGGTKLEIK
notes: as for B1
Consider B5, for which the binding result in assay [1] was “no binding”. The binding result in assay [2] is “no binding”. Also, in the assay with cyno LAIR-1-ECD, the affinity, expressed as Kd, was 7.3 nM; the koff was determined as 0.00078 s⁻¹; the kon stood at 110000 M⁻¹ s⁻¹. In the assay with human LAIR-1-ECD, the Kd was found to be 0.27 nM, the koff is 4.5e-05 s⁻¹ and the kon turned out to be 170000 M⁻¹ s⁻¹.

B6: anti-LAIR-1 antibody ch108D10 (antibody, V domains shown)
VH: EVQLVETGGGLVQPKGSLKLSCAASGFTFNINAMNWVRQAPGKGLEWVARIRTKNNNYATYYADSVKDRFTISRDDSESMLYLQMNNLKTEDTAMYYCVRDRYGGAMAYWGQGTSVTVSS
VL: DIQMTQSSSSFSVSLGDRVTITCKASEDIYNRLAWYQQKPGNVPRLLISSATSLETGVPSRFSGSGSGKDYTLSLTSLQSEDVATYYCQQYWTIPYTFGGGTKLEIK
For B6, in assay [4], the “IC50 (read off the curve): % GFP+ human LAIR-1 reporter cells on coated C1 complex” value was around 0.01 nM, the “IC50 (read off the curve): % GFP+ human LAIR-1 reporter cells on coated COLEC12” value was around 0.03 nM, the “IC50 (read off the curve): % GFP+ human LAIR-1 reporter cells on coated MARCO-his” value is around 0.03 nM and the “IC50 (read off the curve): % GFP+ human LAIR-1 reporter cells on coated MBL” value is around 0.04 nM. In assay [4], the “IC50 (read off the curve): % GFP+ human LAIR-1 reporter cells on coated SP-D” value is around 0.02 nM, the “IC50 (read off the curve): % GFP+ human LAIR-1 reporter cells on coated collagen 1” value is around 0.03 nM and the “IC50 (read off the curve): % GFP+ human LAIR-1 reporter cells on coated collagen 4” value was around 0.02 nM. Besides, in assay [3], the “IC50 (read off the curve): % GFP+ human LAIR-1 reporter cells on coated MARCO-his” value was around 0.01 nM, the “IC50 (read off the curve): % GFP+ human LAIR-1 reporter cells on coated collagen 1” value was around 0.05 nM and the “IC50 (read off the curve): % GFP+ human LAIR-1 reporter cells on coated collagen 4” value is around 0.04 nM.

B7: anti-LAIR-1 antibody 108D10 (antibody, V domains shown)
VH: EVQLVETGGGLVQPKGSLKLSCAASGFTFNINAMNWVRQAPGKGLEWVARIRTKNNNYATYYADSVKDRFTISRDDSESMLYLQMNNLKTEDTAMYYCVRDRYGGAMAYWGQGTSVTVSS
VL: DIQMTQSSSSFSVSLGDRVTITCKASEDIYNRLAWYQQKPGNVPRLLISSATSLETGVPSRFSGSGSGKDYTLSLTSLQSEDVATYYCQQYWTIPYTFGGGTKLEIK
notes: as for B1
In the case of B7, the binding result in assay [1] is reported as “no binding”. Further, the binding result in assay [2] was “no binding”. In the assay with cyno LAIR-1-ECD, the Kd came out at 21 nM, the koff came to 0.0039 s⁻¹ and the kon came to 190000 M⁻¹ s⁻¹. In the assay with human LAIR-1-ECD, the Kd is 0.4 nM, the koff was 0.00043 s⁻¹ and the kon is 1.1e+06 M⁻¹ s⁻¹.

B8: anti-LAIR-1 antibody ch47A1 (antibody, V domains shown)
VH: EVQLVESGGGLVQPKGSLKLSCAASGFTFNTYAIHWVRQAPGKGLEWVARIRSKSTNYATYYADSVKDRFTISRDDSQSMVFLQMNNLKTEDTAMYYCVRENWYYYALDYWGQGTSVTVSS
VL: DIQMTQSPASLSASVGETVTITCRASGNIHNYLTWYQQKQGKSPQVLVYNAKTLEDGVPSRFSGSESGTQYSLKINSLQPEDFGSYYCQHFWSTPFTFGSGTKLEIK
Take B8: in assay [4], the “IC50 (read off the curve): % GFP+ human LAIR-1 reporter cells on coated C1 complex” value was around 0.02 nM, the “IC50 (read off the curve): % GFP+ human LAIR-1 reporter cells on coated COLEC12” value is around 0.1 nM, the “IC50 (read off the curve): % GFP+ human LAIR-1 reporter cells on coated MARCO-his” value is around 0.06 nM and the “IC50 (read off the curve): % GFP+ human LAIR-1 reporter cells on coated MBL” value is around 0.2 nM. Moreover, in assay [4], the “IC50 (read off the curve): % GFP+ human LAIR-1 reporter cells on coated SP-D” value is around 0.05 nM, the “IC50 (read off the curve): % GFP+ human LAIR-1 reporter cells on coated collagen 1” value is around 0.05 nM and the “IC50 (read off the curve): % GFP+ human LAIR-1 reporter cells on coated collagen 4” value is around 0.04 nM. In assay [3], the “IC50 (read off the curve): % GFP+ human LAIR-1 reporter cells on coated MARCO-his” value is around 0.04 nM, the “IC50 (read off the curve): % GFP+ human LAIR-1 reporter cells on coated collagen 1” value is around 0.1 nM and the “IC50 (read off the curve): % GFP+ human LAIR-1 reporter cells on coated collagen 4” value is around 0.08 nM.

B9: anti-LAIR-1 antibody 47A1 (antibody, V domains shown)
VH: EVQLVESGGGLVQPKGSLKLSCAASGFTFNTYAIHWVRQAPGKGLEWVARIRSKSTNYATYYADSVKDRFTISRDDSQSMVFLQMNNLKTEDTAMYYCVRENWYYYALDYWGQGTSVTVSS
VL: DIQMTQSPASLSASVGETVTITCRASGNIHNYLTWYQQKQGKSPQVLVYNAKTLEDGVPSRFSGSESGTQYSLKINSLQPEDFGSYYCQHFWSTPFTFGSGTKLEIK
notes: as for B1
For the molecule B9, in assay [1], the binding result is on record as “no binding”. In assay [2], the binding result is given as “no binding”. In the assay with cyno LAIR-1-ECD, this molecule came in with a Kd of 18 nM, a koff of 0.0057 s⁻¹ and a kon of 320000 M⁻¹ s⁻¹. In the assay with human LAIR-1-ECD, this molecule gave a Kd of 0.92 nM, a koff of 0.00055 s⁻¹ and a kon of 590000 M⁻¹ s⁻¹.

(Values after patent US20220041711A1 (NGM BIOPHARMACEUTICALS, published 2022).)
